In paper PMC11268888:

What was measured:
Test in all cases: SPR; […]; HBS-EP (10 mM HEPES pH 7.4, 150 mM NaCl, 3 mM EDTA, 0.005% Surfactant P20); […]
[1] = molecular target: MeV-H (measles virus hemagglutinin), vaccine strain (measles virus)
[2] = molecular target: ectodomain (head domain) of CDV-H, 5VD wild-type strain (canine distemper virus (5VD wild-type strain))
[3] = molecular target: soluble head domain of CDV-H (canine distemper virus hemagglutinin), Kyoto Biken vaccine strain, made in HEK293T cells (canine distemper virus (Kyoto Biken vaccine strain))

Chain of ectodomain of human Nectin-4 (residues 1-333) (Q96NY8 32-333): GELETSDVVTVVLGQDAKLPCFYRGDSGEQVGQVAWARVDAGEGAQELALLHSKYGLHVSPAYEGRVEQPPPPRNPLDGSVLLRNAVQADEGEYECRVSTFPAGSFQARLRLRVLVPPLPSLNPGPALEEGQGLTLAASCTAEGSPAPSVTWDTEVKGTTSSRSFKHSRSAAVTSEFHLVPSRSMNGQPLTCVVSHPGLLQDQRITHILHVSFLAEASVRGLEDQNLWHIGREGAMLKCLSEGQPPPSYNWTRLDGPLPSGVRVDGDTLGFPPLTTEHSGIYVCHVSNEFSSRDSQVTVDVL

| Substance | Ka [1] [M⁻¹] | Kd [1] [µM] | Ka [2] [M⁻¹] | Kd [2] [µM] | Ka [3] [M⁻¹] | Kd [3] [µM] |
| --- | --- | --- | --- | --- | --- | --- |
| ectodomain of human Nectin-4 (residues 1-333) (from UniProt Q96NY8 32-333) (receptor) | 1.5e+06 | 0.666 | 397000 | 0.948 | 1.05e+06 | 2.52 |
| ectodomain of dog Nectin-4 (residues 1-332) (receptor) | 950000 | 1.05 | 396000 | 2.53 | 1.06e+06 | 0.942 |
